# B1: Cyclin-dependent kinase inhibitor 2A (Homo sapiens), P42771 (parent)
# chain: MEPAAGSSMEPSADWLATAAARGRVEEVRALLEAGALPNAPNSYGRRPIQVMMMGSARVAELLLLHGAEPNCADPATLTRPVHDAAREGFLDTLVVLHRAGARLDVRDAWGRLPVDLAEELGHRDVARYLRAAAGGTRGSNHARIDAAEGPSDIPD
# How the values were obtained:
# cdk4_human CDK4, P11802 [1] = variants of: B1; conditions: with cdk4_human CDK4, P11802
# cdk4_human CDK4, P11802 [2] = variants of: B1; conditions: with cdk4_human CDK4, P11802; remark: listed apart in the source
# cdk6_human CDK6, Q00534 = variants of: B1; conditions: with cdk6_human CDK6, Q00534
# Sequence of cdk6_human CDK6, Q00534 (Q00534 whole entry): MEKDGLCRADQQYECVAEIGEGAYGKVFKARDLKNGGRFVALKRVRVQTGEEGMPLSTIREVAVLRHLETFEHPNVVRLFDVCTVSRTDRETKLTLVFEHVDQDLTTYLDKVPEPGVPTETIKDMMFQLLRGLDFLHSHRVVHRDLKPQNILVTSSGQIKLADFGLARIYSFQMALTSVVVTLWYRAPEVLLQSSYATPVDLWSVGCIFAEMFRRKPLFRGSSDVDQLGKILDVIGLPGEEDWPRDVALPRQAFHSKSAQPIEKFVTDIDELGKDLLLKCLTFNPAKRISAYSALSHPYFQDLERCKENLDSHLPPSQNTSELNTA
# Sequence of cdk4_human CDK4, P11802 (P11802 whole entry): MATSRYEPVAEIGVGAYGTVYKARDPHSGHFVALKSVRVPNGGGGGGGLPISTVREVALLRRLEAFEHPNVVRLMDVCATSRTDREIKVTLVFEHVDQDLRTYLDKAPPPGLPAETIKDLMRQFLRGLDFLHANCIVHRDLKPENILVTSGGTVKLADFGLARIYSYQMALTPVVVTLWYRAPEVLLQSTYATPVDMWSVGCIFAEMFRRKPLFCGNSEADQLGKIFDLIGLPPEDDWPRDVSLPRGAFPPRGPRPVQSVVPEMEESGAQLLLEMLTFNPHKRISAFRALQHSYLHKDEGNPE
variant,measurement,setting,value
R24P,effect of a mutation on the interaction,"cdk4_human CDK4, P11802 [1]",disrupting interaction
A20P,effect of a mutation on the interaction,"cdk4_human CDK4, P11802 [1]",disrupting interaction
same,effect of a mutation on the interaction,"cdk4_human CDK4, P11802 [2]",disrupting interaction strength
same,effect of a mutation on the interaction,"cdk6_human CDK6, Q00534",disrupting interaction
